Literature values in publication PMC4223872.

Target: Calmodulin C-lobe (Homo sapiens) (UniProt P0DP23)
Assay: ITC

Sequence of Nav1.5 1489-1522 (Q14524 1489-1522): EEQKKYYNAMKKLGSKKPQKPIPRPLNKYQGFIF

Nav1.5 1489-1522 (from UniProt Q14524)
Kd: 19 µM
